What was measured:
Format in all cases: cell-based, mouse
[1] = system: peritoneal macrophages (PM); assay: In vitro BrdU incorporation by peritoneal macrophages after stimulation with GM-CSF; details: cultured PM, 3 days after stimulation, 18 h BrdU pulse
Protocol: Peritoneal macrophages were collected by peritoneal washout using 10 mL PBS containing 2 mM EDTA (Sigma). Red cell lysis was performed (RBC Lysis Buffer, Invitrogen) and cells were filtered through a 70 um mesh before further processing. Medium changes occurred every 3-4 days.
(§1) Cell cycle analysis. In vitro proliferation of macrophages was assessed using the Cell Proliferation ELISA (BrdU, colorimetric; Roche) according to manufacturer's instructions. In brief, 10-20 thousand freshly isolated macrophages were plated per 96 well in a tissue culture dish in complete medium (DMEM, 10% FCS, 1% Pen/Strep, 1% Pyruvate, 1% Glutamate). After macrophages had attached to the plastic, plating medium was replaced with complete medium containing the respective cytokine at indicated concentration. On day 2 after stimulation, BrdU was added to the culture and BrdU incorporation was assessed on day 3.

[2] = system: alveolar macrophages (AM); assay: Long-term liquid culture of alveolar macrophages in the presence of GM-CSF
Protocol: For culture of alveolar macrophages, alveolar lavages were pooled from ten 1 mL 37° C. BAL washes (PBS, 2 mM EDTA, 2% FBS (GE Healthcare) per mouse and stored on ice. RBC lysis was then performed at room temperature (RT) for 3 minutes (RBC Lysis Buffer, Invitrogen). Cells were plated at a density of at least 1.1 million cells per 10 cm bacterial petri dish (Greiner Bio-One) or NUNC non treated 6 well plates (>0.45-5*10^6 per well) in complete medium (RPMI, 10% FCS, 1% Pen/Strep, 1% Pyruvate, 1% Glutamate) supplemented with 1-2% GM-CSF supernatant from J558L cells transfected with murine GM-CSF cDNA. Medium was partially changed every two-three days. Cells were replated only at confluency and only at least one day after medium change. To avoid cell death during detachment, cells were detached with Accutase (StemCells Technologies) and 2 mM EGTA for 15 minutes at 37° C. without agitation or pipetting and careful monitored under the microscope for the detachment process. Only after a large number of cells started to round up and float, cells were carefully detached with a p1000 pipettte.
Cell Culture. […]

[3] = system: alveolar macrophages (AM); assay: In vitro BrdU incorporation by alveolar macrophages after stimulation with GM-CSF; details: cultured AM, 3 days after stimulation, 18 h BrdU pulse
Protocol: as §1

B1: GM-CSF: cytokine growth factor for leukocytes; used as supernatant from J558L cells transfected with murine GM-CSF cDNA (protein, UniProt P01587 18-141, looked up)
Granulocyte-macrophage …: APTRSPITVTRPWKHVEAIKEALNLLDDMPVTLNEEVEVVSNEFSFKKLTCVQTRLKIFEQGLRGNFTKLKGALNMTASYYQTYCPPTPETDCETQVTTYADFIDSLKTFLTDIPFECKKPGQK
For B1, the “BrdU incorporation in response to GM-CSF” value [1] was “not PM incorprorated BrdU”, the “duration of expansion of AM in long-term liquid culture” value [2] was “several months” and the “BrdU incorporation in response to GM-CSF” value [3] was “incorprorated BrdU”.
